Consider two substances from article PMC3785227.

pKd: −log10 of the molar value.

The test has as its target stripped core gp120 (HIV strain YU2), displayed on yeast (HIV-1 strain YU2). The test can be described thus: flow cytometry on cells. (In general: A flow cytometer gives signals particle by particle.)

As a reminder, the pKd is the negative decadic logarithm of the Kd, by convention in mol/L.

Turning to “b13, non-neutralizing CD4 binding site-directed anti-gp120 antibody”, the pKd is 9.05. Then “b12, broadly neutralizing anti-gp120 antibody against the CD4 binding site”, with 10.39.
